These are literature values, as cited in PMC3521240.

The data set deals with PTX3 (Homo sapiens) (UniProt P26022).
Chain of PTX3 (Homo sapiens) (P26022 18-381): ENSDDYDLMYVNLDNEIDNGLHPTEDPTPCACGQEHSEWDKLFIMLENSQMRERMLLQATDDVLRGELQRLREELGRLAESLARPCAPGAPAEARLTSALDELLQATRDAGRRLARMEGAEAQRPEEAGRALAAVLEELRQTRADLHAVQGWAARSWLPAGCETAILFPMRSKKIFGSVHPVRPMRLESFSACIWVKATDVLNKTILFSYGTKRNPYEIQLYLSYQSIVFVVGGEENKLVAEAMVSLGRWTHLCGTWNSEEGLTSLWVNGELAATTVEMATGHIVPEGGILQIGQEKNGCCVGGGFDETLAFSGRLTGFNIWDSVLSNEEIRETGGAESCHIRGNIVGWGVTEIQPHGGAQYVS

Chain of AZU1 (P20160 27-248): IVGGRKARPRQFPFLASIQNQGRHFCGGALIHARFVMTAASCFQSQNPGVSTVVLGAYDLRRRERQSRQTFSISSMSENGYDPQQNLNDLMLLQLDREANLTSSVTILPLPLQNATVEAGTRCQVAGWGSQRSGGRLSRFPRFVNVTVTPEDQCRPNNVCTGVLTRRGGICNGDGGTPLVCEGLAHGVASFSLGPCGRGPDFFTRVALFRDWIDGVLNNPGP

As for AZU1 (from UniProt P20160), the Kd (in general, a measure of binding affinity in units of concentration) is 22 nM.
